Experiments:
[1] = system: crypto-ybbR-eGFP fusion with N-terminal GFP and C-terminal 6xHis (coumarin-PPant labeled)
[2] = system: crypto-V. cholerae VibB labeled with coumarin-PPant
[3] = system: crypto-A. parasiticus PksA carrier protein labeled with coumarin-PPant
[4] = system: crypto-ybbR free peptide (coumarin-PPant labeled 11 amino acid ybbR)
[5] = system: crypto-P. fluorescens PltL labeled with coumarin-PPant
[6] = system: crypto-S. coelicolor ActACP labeled with coumarin-PPant
[7] = system: crypto-P. syringae SyrB1 labeled with coumarin-PPant
[8] = system: crypto-L. majuscula JamF labeled with coumarin-PPant
[9] = system: crypto-E. coli AcpP (type II FAS acyl carrier protein labeled with coumarin-PPant)
[10] = system: crypto-MBP-PaAcpP (MBP fusion of P. aeruginosa AcpP labeled with coumarin-PPant)
[11] = system: crypto-ybbR-eGFP fusion with N-terminal 6xHis and C-terminal GFP (coumarin-PPant labeled)
[12] = system: crypto-P. falciparum apicoplast ACP (Type II) labeled with coumarin-PPant
[13] = system: crypto-FITC-ybbR (rhodamine WT PPant-labeled FITC-ybbR)
[14] = system: crypto-A. orientalis CepK labeled with coumarin-PPant
[15] = system: coumarin-PPant labeled FITC-ybbR conjugate
[16] = system: crypto-P. agglomerans AdmA labeled with coumarin-PPant
[17] = system: crypto-G. fujikuroi Pks4 carrier protein labeled with coumarin-PPant
[18] = system: crypto-L. majuscula JamC labeled with coumarin-PPant
[19] = system: crypto-M. tuberculosis AcpM (Type II) labeled with coumarin-PPant
[20] = system: holo-SoAcpP (S. oneidensis type II FAS AcpP)
[21] = system: crypto-P. agglomerans AdmI labeled with coumarin-PPant
[22] = system: crypto-GFP-ACP (rhodamine-PPT labeled fusion of E. coli ACP with GFP)
[23] = system: crypto-MBP-PaACP (rhodamine-PPT labeled MBP fusion of P. aeruginosa ACP)
[24] = system: crypto-Lux-ACP (rhodamine-PPT labeled fusion of bacterial luciferase with E. coli ACP)

Row | Substance | AcpH activity with modified ybbR peptide [1] | AcpH qualitative CP activity [2] | AcpH qualitative CP activity [3] | AcpH activity with modified ybbR peptide [4] | AcpH qualitative CP activity [5] | AcpH qualitative CP activity [6] | AcpH qualitative CP activity [7] | AcpH qualitative CP activity [8] | AcpH qualitative CP activity [9] | AcpH qualitative CP activity [10] | AcpH activity with modified ybbR peptide [11] | AcpH qualitative CP activity [12] | AcpH qualitative CP activity [14] | AcpH activity with modified ybbR peptide [15] | AcpH qualitative CP activity [16] | AcpH qualitative CP activity [17] | AcpH qualitative CP activity [18] | AcpH qualitative CP activity [19] | AcpH qualitative CP activity [20] | AcpH qualitative CP activity [21] | further results
1 | acyl carrier protein hydrolase (AcpH) from Cyanothece PCC 7822 | YES | no | YES | YES | no | no | no | no | YES | YES | YES | YES | no | YES | no | no | YES | YES | YES^† | no | Km [13]: 21 µM; Vmax [13]: 0.004 min⁻¹; kcat [13]: 6.67e-05 s⁻¹; kcat/KM [13]: 3.33 M⁻¹ s⁻¹; Km (holo-E. coli AcpP): 58 µM; Vmax (holo-E. coli AcpP): 1.1 min⁻¹; kcat (holo-E. coli AcpP): 3.52 s⁻¹; kcat/KM (holo-E. coli AcpP): 60000 M⁻¹ s⁻¹
2 | acyl carrier protein hydrolase (AcpH) from Pseudomonas aeruginosa PAO1 | no | no | YES | no | YES | no | no | no | YES | YES | no | YES | no | no | no | no | YES | YES | YES^† | no | AcpH activity with NRPS-type peptidyl carrier proteins [5]: The observed partial activity resulted from PaAcpH with PltL; removal of rhodamine-PPT from ACP fusion protein [22]: AcpH removed rhodamine-PPT from ACP attached to three different fusion partners ... a C-terminal green fluorescent protein (GFP); Km [13]: 177 µM; Vmax [13]: 0.008 min⁻¹; kcat [13]: 0.000133 s⁻¹; kcat/KM [13]: 0.783 M⁻¹ s⁻¹; removal of rhodamine-PPT from ACP fusion protein [23]: AcpH removed rhodamine-PPT from ACP attached to three different fusion partners, an N-terminal maltose binding protein (MBP); removal of rhodamine-PPT from ACP fusion protein [24]: AcpH removed rhodamine-PPT from ACP attached to three different fusion partners ... an N-terminal bacterial luciferase fusion (Lux-ACP); Km (holo-E. coli AcpP): 12 µM; Vmax (holo-E. coli AcpP): 0.59 min⁻¹; kcat (holo-E. coli AcpP): 0.00983 s⁻¹; kcat/KM (holo-E. coli AcpP): 817 M⁻¹ s⁻¹
3 | acyl carrier protein hydrolase (AcpH) from Pseudomonas fluorescens NCIMB 10586 | YES | no | YES | YES | no | YES | no | no | YES | YES | YES | YES | no | YES | no | YES | YES | YES | YES^† | YES | Km [13]: 48 µM; Vmax [13]: 0.17 min⁻¹; kcat [13]: 0.00283 s⁻¹; kcat/KM [13]: 50 M⁻¹ s⁻¹
4 | annotated hypothetical AcpH homolog from Shewanella oneidensis MR-1 | no | no | no | no | no | no | no | no | no | no | no | no | no | no | no | no | no | no | no | no | Vmax (holo-E. coli AcpP): NC†

Reference: patent US20150253335
